B1: E3 ubiquitin-protein ligase CHFR (Homo sapiens), Q96EP1-1 (parent)
chain: MERPEEGKQSPPPQPWGRLLRLGAEEGEPHVLLRKREWTIGRRRGCDLSFPSNKLVSGDHCRIVVDEKSGQVTLEDTSTSGTVINKLKVVKKQTCPLQTGDVIYLVYRKNEPEHNVAYLYESLSEKQGMTQESFEANKENVFHGTKDTSGAGAGRGADPRVPPSSPATQVCFEEPQPSTSTSDLFPTASASSTEPSPAGRERSSSCGSGGGGISPKGSGPSVASDEVSSFASALPDRKTASFSSLEPQDQEDLEPVKKKMRGDGDLDLNGQLLVAQPRRNAQTVHEDVRAAAGKPDKMEETLTCIICQDLLHDCVSLQPCMHTFCAACYSGWMERSSLCPTCRCPVERICKNHILNNLVEAYLIQHPDKSRSEEDVQSMDARNKITQDMLQPKVRRSFSDEEGSSEDLLELSDVDSESSDISQPYVVCRQCPEYRRQAAQPPHCPAPEGEPGAPQALGDAPSTSVSLTTAVQDYVCPLQGSHALCTCCFQPMPDRRAEREQDPRVAPQQCAVCLQPFCHLYWGCTRTGCYGCLAPFCELNLGDKCLDGVLNNNSYESDILKNYLATRGLTWKNMLTESLVALQRGVFLLSDYRVTGDTVLCYCCGLRSFRELTYQYRQNIPASELPVAVTSRPDCYWGRNCRTQVKAHHAMKFNHICEQTRFKN
B2: Aprataxin and PNK-like factor (Homo sapiens), Q8IW19 (parent)
chain: MSGGFELQPRDGGPRVALAPGETVIGRGPLLGITDKRVSRRHAILEVAGGQLRIKPIHTNPCFYQSSEKSQLLPLKPNLWCYLNPGDSFSLLVDKYIFRILSIPSEVEMQCTLRNSQVLDEDNILNETPKSPVINLPHETTGASQLEGSTEIAKTQMTPTNSVSFLGENRDCNKQQPILAERKRILPTWMLAEHLSDQNLSVPAISGGNVIQGSGKEEICKDKSQLNTTQQGRRQLISSGSSENTSAEQDTGEECKNTDQEESTISSKEMPQSFSAITLSNTEMNNIKTNAQRNKLPIEELGKVSKHKIATKRTPHKEDEAMSCSENCSSAQGDSLQDESQGSHSESSSNPSNPETLHAKATDSVLQGSEGNKVKRTSCMYGANCYRKNPVHFQHFSHPGDSDYGGVQIVGQDETDDRPECPYGPSCYRKNPQHKIEYRHNTLPVRNVLDEDNDNVGQPNEYDLNDSFLDDEEEDYEPTDEDSDWEPGKEDEEKEDVEELLKEAKRFMKRK

Variants of: B1
Conditions: with parp1_human PARP1, P09874
Target sequence in this assay (P09874 whole entry): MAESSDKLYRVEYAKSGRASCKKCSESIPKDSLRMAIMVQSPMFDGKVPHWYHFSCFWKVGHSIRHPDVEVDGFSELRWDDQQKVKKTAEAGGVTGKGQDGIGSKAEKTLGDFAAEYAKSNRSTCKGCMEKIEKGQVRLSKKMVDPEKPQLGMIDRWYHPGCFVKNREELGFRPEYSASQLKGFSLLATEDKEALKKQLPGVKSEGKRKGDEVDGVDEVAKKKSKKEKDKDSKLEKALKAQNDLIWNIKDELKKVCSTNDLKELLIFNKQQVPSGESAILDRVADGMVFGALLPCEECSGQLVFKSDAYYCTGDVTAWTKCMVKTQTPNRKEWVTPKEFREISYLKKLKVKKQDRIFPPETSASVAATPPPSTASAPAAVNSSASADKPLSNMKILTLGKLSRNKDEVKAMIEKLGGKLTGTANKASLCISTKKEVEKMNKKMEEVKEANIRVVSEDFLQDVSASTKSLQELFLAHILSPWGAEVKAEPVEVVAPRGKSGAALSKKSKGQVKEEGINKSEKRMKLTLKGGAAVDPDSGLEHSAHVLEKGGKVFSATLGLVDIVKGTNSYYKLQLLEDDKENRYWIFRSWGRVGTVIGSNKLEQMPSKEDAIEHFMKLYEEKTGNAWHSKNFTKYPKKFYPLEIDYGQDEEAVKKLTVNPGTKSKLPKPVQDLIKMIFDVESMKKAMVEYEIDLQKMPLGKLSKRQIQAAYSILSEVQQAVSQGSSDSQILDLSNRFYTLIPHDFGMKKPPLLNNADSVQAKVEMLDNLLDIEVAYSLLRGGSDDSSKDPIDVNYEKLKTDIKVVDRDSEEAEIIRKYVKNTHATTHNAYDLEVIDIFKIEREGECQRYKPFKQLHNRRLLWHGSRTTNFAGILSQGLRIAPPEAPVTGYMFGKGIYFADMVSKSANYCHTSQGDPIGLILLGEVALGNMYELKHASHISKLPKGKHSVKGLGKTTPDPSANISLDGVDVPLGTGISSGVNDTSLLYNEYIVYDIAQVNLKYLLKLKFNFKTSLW

Row | Variant | effect of a mutation on the interaction
1 | C635A;C641A | disrupting interaction

Variants of: B2
Conditions: with parp1_human PARP1, P09874
Target sequence in this assay (P09874 whole entry): as above

Row | Variant | effect of a mutation on the interaction
2 | C379A;C385A;C421A;C427A | disrupting interaction
